Publication PMC11385703 (Structure(London, England:1993), 2024)

How the values were obtained:
Settings in all cases: both partners purified
biotinylated myotoxin II = biotinylated myotoxin II (Bothrops asper, UniProt P24605, biotin (EZ-Link NHS-PEG4-Biotin, 1:1.25 toxin:reagent molar ratio)); assay: BLI
myotoxin II = biological target: T1, myotoxin II (Bothrops asper, UniProt P24605); assay: […] (1:20) in PBS pH 7.4 and pH 6, 1 h at room temperature
T1 construct: source: purified from the venom of B. asper (CM-Sephadex C25, RP-HPLC)

[1] = biological target: T2, α-cobratoxin, biotinylated (Naja kaouthia, UniProt P01391, biotin (EZ-Link NHS-PEG4-Biotin, 1:1.25 toxin:biotinylation reagent molar ratio)); assay: BLI; […]) biosensors; […]; dissociation for 600 s in HEPES-MES pH 3.5; 25°C; 1:1 binding model, […]
[2] = biological target: T2, α-cobratoxin, biotinylated; assay: BLI; […]) biosensors; […]; dissociation for 600 s in HEPES-MES pH 4.0; 25°C; 1:1 binding model, […]
[3] = biological target: T2, α-cobratoxin, biotinylated; assay: BLI; […]) biosensors; […]; dissociation for 600 s in HEPES-MES pH 4.5; 25°C; 1:1 binding model, […]
[4] = biological target: T2, α-cobratoxin, biotinylated; assay: BLI; […]) biosensors; […]; dissociation for 600 s in HEPES-MES pH 5.0; 25°C; 1:1 binding model, […]
[5] = biological target: T2, α-cobratoxin, biotinylated; assay: BLI; […]) biosensors; […]; dissociation for 600 s in HEPES-MES pH 5.5; 25°C; 1:1 binding model, […]
[6] = biological target: T2, α-cobratoxin, biotinylated; assay: BLI; […]) biosensors; […]; dissociation for 600 s in HEPES-MES pH 6.0; 25°C; 1:1 binding model, […]
[7] = biological target: T2, α-cobratoxin, biotinylated; assay: BLI; […]) biosensors; […]; dissociation for 600 s in HEPES-MES pH 6.5; 25°C; 1:1 binding model, […]
[8] = biological target: T2, α-cobratoxin, biotinylated; assay: BLI; […]) biosensors; […]; dissociation for 600 s in HEPES-MES pH 7.4; 25°C; 1:1 binding model, […]
[9] = biological target: T2, α-cobratoxin, biotinylated; assay: BLI; […]) biosensors; […]; association in HEPES-MES pH 7.4 for 300 s, dissociation in HEPES-MES pH 5.5 for 600 s; 1:1 binding model, […]
α-cobratoxin = biological target: T3, α-cobratoxin (Naja kaouthia, UniProt P01391); assay: SPR; […] (Biacore 8K, 25°C); […]; dissociation 300 s in running buffer of pH 7.4 or 5.5
T3 construct: source: bought: Latoxan

[10] = biological target: T4, biotinylated α-cobratoxin (Naja kaouthia, UniProt P01391); assay: BLI
T4 construct: source: bought: Latoxan, then biotinylated

[11] = biological target: T2, α-cobratoxin, biotinylated; assay: BLI; […]) biosensors; […]; association in HEPES-MES pH 7.4 for 300 s, dissociation in HEPES-MES pH 7.4 for 600 s; 1:1 binding model, […]

T2 sequence (P01391 whole entry): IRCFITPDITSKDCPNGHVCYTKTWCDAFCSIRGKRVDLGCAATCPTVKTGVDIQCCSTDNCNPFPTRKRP
Chain of biotinylated myotoxin II (P24605 17-137): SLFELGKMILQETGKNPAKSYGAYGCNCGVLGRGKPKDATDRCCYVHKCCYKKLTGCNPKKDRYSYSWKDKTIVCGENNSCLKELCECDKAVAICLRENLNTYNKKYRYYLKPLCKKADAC
T4 sequence (P01391 whole entry): as the sequence (P01391 whole entry) above
T1 sequence (P24605 17-137): as the sequence (P24605 17-137) above

B1: IgG: TPL0039_05_E02-YTE (antibody, V domains shown)
VH: QVQLLESGGGLVQPGRSLRLSCAASGFTFSSYGLHWVRQAPGKGLEWVAVISYDGSNKYYADSVKGRFTISRDNSKNTLYLQMNSLRAEDTAVYYCASTLQQLDAFDIWGQGTLVTVSS
VL: NFMLTQPHSVSESPGKTVTISCTRSSGSIASNYVQWYQQRPGTSPTIMIYEDNQRPSGVPDRFSGAIDSSSNSASLTISGLKTEDEADYYCQSYDSSSVVFGGGTKVTVL
notes: copies: 2 + 2
Kd (biotinylated myotoxin II): < 0.001 nM | koff (biotinylated myotoxin II): < 1e-07 s⁻¹

B2: IgG: TPL0039_05_B04-YTE (antibody, V domains shown)
VH: EVQLLESGGGVVQPGRSLRLSCAASGFTFSSYGMHWVRQAPGKGLEWVAVISYDGSNKYYADSVKGRFTISRDNSKNTLYLQMNSLRAEDTAVYYCARVGENEAFDIWGQGTMVTVSS
VL: NFMLTQPHSVSESPGKTVTISCTRSSGSIARNYVQWYQQRPGSAPTTVIYEDNQRPSGVPDRFSGSIDSSSNSASLTISGLKTEDEADYYCQSYDSSTVVFGGGTKLTVL
notes: also called IgG1 B04-YTE; source: CHO cells, transiently expressed, purified; copies: 2 + 2
stoichiometry N (myotoxin II): 2 antigen per IgG1

B3: IgG: TPL0039_05_B12-YTE (antibody, V domains shown)
VH: EVQLVESGGGVVQPGRSLRLSCAASGFTFSSYGMHWVRQAPGKGLEWVAVISYDGSNKYYADSVKGRFTISRDNSKNTLYLQMNSLRAEDTAVYYCAGWTEGDAFDIWGQGTLVTVSS
VL: NFMLTQPHSVSESPGKTVTISCTRSSGSIASNYVQWYQQRPGSAPSTVIYEDNRRPSGVPDRFSGSIDSASNSASLTISGLKTEDEADYYCQSYDSSSVVFGGGTKITVL
notes: copies: 2 + 2
Kd (biotinylated myotoxin II): < 0.001 nM

B4: 2554_01_D11 Fab (Fab, V domains shown)
VH: QVQLVQSGAEVKKPGSSVKVSCKASGGTFSSYAISWVRQAPGQGLEWMGGIIPIFGTANYAQKFQGRVTITADESTSTAYMELRSLRSDDTAVYYCARDNLGYCSGGSCYSDYYYYYMDVWGQGTLVTVSS
VL: NFMLTQPRSVSESPGKTVTISCTRSSGSIGSDYVHWYQQRPGSSPTTVIYEDNQRPSGVPDRFSGSIDSSSNSASLTISGLKTEDEADYYCQSYDRSNHEVVFGGGTKLTVL
koff [1]: 0.0036 s⁻¹ | koff [2]: 0.001 s⁻¹ | koff [3]: 0.00065 s⁻¹ | koff [4]: 0.00043 s⁻¹ | koff [5]: 0.00039 s⁻¹ | koff [6]: 0.0003 s⁻¹ | koff [7]: 0.00027 s⁻¹ | koff [8]: 0.00026 s⁻¹ | Kd [9]: 8.7 nM | koff [9]: 0.0004 s⁻¹ | kon [9]: 46000 M⁻¹ s⁻¹

B5: IgG: 2555_01_A01-YTE (antibody, V domains shown)
VH: QVQLVQSGAEVKKPGSSVKVSCKASGGTFSSYAISWVRQAPGQGLEWMGGIIPIFGTANYAQKFQGRVTITADESTSTAYMELRSLRSDDTAVYYCARDNLGYCSGGSCYSDYYYYYMDVWGQGTLVTVSS
VL: SYELTQPPSVSVAPGRTATITCEGDNIGQQIVHWYQQKPGQAPVAVISSDSDRPSGIPERFSGSNSGNTATLTISRVEAGDEADYYCQVWDSGSDHVVFGGGTKVTVL
notes: also called IgG1 A01; source: CHO cells, transiently expressed, purified; copies: 2 + 2
binding result (α-cobratoxin): binds

B6: Fab: 2555_01_A01 (Fab, V domains shown)
VH: QVQLVQSGAEVKKPGSSVKVSCKASGGTFSSYAISWVRQAPGQGLEWMGGIIPIFGTANYAQKFQGRVTITADESTSTAYMELRSLRSDDTAVYYCARDNLGYCSGGSCYSDYYYYYMDVWGQGTLVTVSS
VL: SYELTQPPSVSVAPGRTATITCEGDNIGQQIVHWYQQKPGQAPVAVISSDSDRPSGIPERFSGSNSGNTATLTISRVEAGDEADYYCQVWDSGSDHVVFGGGTKVTVL
notes: also called Fab A01; source: purified
binding result [10]: binds

B7: Fab: 2554_01_D11 (Fab, V domains shown)
VH: QVQLVQSGAEVKKPGSSVKVSCKASGGTFSSYAISWVRQAPGQGLEWMGGIIPIFGTANYAQKFQGRVTITADESTSTAYMELRSLRSDDTAVYYCARDNLGYCSGGSCYSDYYYYYMDVWGQGTLVTVSS
VL: NFMLTQPRSVSESPGKTVTISCTRSSGSIGSDYVHWYQQRPGSSPTTVIYEDNQRPSGVPDRFSGSIDSSSNSASLTISGLKTEDEADYYCQSYDRSNHEVVFGGGTKLTVL
notes: also called Fab D11; source: purified
binding result [10]: binds

B8: TPL0197_01_C08 Fab (Fab, V domains shown)
VH: EVQLVQSGAEVKKPGASVKVSCKASGYTFTSYGISWVRQAPGQGLEWMGWISAYNGNTNYAQKLQGRVTMTTDTSTSTAYMELRSLRSDDTAVYYCAREEYCSSTSCYVGNYYGMDVWGQGTLVTVSS
VL: DIQMTQSPSSLSASVGDRVTITCQASQDISNYLNWYQQKPGKAPKLLIYAASSLESGVPSRFSGSGSGTEFTLTITNLQVDDFATYYCQRYDSNFAFGQGTKVEIK
koff [1]: 1.2 s⁻¹ | koff [2]: 0.28 s⁻¹ | koff [3]: 0.054 s⁻¹ | koff [4]: 0.0073 s⁻¹ | koff [5]: 0.0041 s⁻¹ | koff [6]: 0.0015 s⁻¹ | koff [7]: 0.00077 s⁻¹ | koff [8]: 0.00069 s⁻¹ | koff [9]: 0.0058 s⁻¹ | kon [9]: 3800 M⁻¹ s⁻¹ | Kd [11]: 64 nM | koff [11]: 0.00085 s⁻¹ | kon [11]: 11000 M⁻¹ s⁻¹

B9: IgG: TPL0197_01_C08-YTE (antibody, V domains shown)
VH: EVQLVQSGAEVKKPGASVKVSCKASGYTFTSYGISWVRQAPGQGLEWMGWISAYNGNTNYAQKLQGRVTMTTDTSTSTAYMELRSLRSDDTAVYYCAREEYCSSTSCYVGNYYGMDVWGQGTLVTVSS
VL: DIQMTQSPSSLSASVGDRVTITCQASQDISNYLNWYQQKPGKAPKLLIYAASSLESGVPSRFSGSGSGTEFTLTITNLQVDDFATYYCQRYDSNFAFGQGTKVEIK
notes: also called IgG1 C08; source: CHO cells, transiently expressed, purified; copies: 2 + 2
binding result (α-cobratoxin): binds
